The term pKd denotes the Kd on a negative log10 scale, so that one unit is a factor of ten.

The values that follow come from article PMC9482650, “Quantitative fragmentomics allow affinity mapping of interactomes” (Nature Communications, 2022).

Some targets named below: HTRA1, Q92743; TJP1_2, Q07157; MAGI2_5, Q86UL8; PTPN3, P26045; DLG1_2, Q12959; DLG2_2, Q15700; NOS1, P29475; MAST1, Q9Y2H9; DLG2_3, Q15700; PICK1, Q9NRD5; IL16_3, Q14005.
Common to all, as to experiment: holdup assay
What all share (set-up): key: below the threshold = too weak to quantify, mostly under pKd 3.1 to 4
Settings in all cases: plain residues with an end cap or a label only (N-terminal biotin on a linker: ado-ado)

The target of another experiment is T1, LRRC7, Q96NW7.
T1 sequence (Q96NW7 1440-1537, limits assumed, looked up): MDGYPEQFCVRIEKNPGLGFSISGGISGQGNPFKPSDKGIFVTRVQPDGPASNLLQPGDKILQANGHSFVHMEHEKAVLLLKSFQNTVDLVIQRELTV

In another experiment the target is T2, TX1BP3, O14907.
T2 sequence (O14907 10-122, limits assumed, looked up): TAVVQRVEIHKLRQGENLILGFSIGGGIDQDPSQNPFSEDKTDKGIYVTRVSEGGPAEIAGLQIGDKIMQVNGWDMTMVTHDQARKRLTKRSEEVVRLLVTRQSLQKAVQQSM

In the next experiment the target is T3, APBA2_2, Q99767.
T3 sequence (Q99767 654-744, limits assumed, looked up): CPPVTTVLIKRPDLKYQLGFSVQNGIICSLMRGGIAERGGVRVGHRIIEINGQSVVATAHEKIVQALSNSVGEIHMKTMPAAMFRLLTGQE

For the next experiment, the target named is T4, MPDZ_12, O75970.
T4 sequence (O75970 1857-1958, limits assumed, looked up): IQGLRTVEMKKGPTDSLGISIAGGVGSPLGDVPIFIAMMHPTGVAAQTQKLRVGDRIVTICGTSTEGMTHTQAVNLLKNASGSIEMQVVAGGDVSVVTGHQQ

The target of a further experiment is T5, PDZRN3_1, Q9UPQ7.
T5 sequence (Q9UPQ7 244-349, limits assumed, looked up): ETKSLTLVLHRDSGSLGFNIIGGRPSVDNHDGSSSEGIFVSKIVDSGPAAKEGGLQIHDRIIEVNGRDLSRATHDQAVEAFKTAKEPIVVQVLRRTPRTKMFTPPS

In a further experiment the target is T6, DLG3_1, Q92796.
T6 sequence (Q92796 125-227, limits assumed, looked up): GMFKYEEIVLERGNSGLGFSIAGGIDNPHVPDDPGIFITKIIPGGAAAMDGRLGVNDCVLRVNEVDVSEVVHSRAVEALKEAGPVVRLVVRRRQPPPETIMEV

Another experiment addresses T7, LIN7A, O14910.
T7 sequence (O14910 103-200, limits assumed, looked up): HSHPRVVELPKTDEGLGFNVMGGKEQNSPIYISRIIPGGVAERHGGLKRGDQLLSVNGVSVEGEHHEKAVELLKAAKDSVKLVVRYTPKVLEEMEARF

The next experiment deals with T8, NHERF3_1, Q5T2W1.
T8 sequence (Q5T2W1 4-100, limits assumed, looked up): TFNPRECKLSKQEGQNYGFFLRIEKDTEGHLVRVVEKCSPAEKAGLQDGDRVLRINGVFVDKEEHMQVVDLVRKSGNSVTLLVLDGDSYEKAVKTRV

A further experiment has as its target T9, NHERF3_4, Q5T2W1.
T9 sequence (Q5T2W1 373-468, limits assumed, looked up): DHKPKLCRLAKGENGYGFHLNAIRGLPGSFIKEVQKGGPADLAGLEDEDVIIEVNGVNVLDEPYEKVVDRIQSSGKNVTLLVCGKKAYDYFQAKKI

In the next experiment the target is T10, ARHGAP21, Q5T5U3.
T10 sequence (Q5T5U3 45-169, limits assumed, looked up): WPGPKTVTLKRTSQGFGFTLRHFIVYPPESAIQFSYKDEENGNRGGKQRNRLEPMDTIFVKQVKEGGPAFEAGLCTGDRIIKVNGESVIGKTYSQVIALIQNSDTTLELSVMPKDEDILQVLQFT

The next experiment has as its target T11, MPDZ_5, O75970.
T11 sequence (O75970 695-796, limits assumed, looked up): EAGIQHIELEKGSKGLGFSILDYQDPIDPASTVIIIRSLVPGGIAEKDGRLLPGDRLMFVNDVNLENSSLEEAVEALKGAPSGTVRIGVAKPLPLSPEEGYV

The next experiment addresses T12, MPDZ_10, O75970.
T12 sequence (O75970 1624-1722, limits assumed, looked up): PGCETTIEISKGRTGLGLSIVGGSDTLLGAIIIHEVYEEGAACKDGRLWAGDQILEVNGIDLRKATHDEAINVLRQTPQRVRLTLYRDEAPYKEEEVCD

The target in another experiment is T13, DFNB31_2, Q9P202.
T13 sequence (Q9P202 274-371, limits assumed, looked up): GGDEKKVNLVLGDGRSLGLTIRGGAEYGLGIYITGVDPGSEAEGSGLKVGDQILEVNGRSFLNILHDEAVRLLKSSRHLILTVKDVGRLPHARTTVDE

Chain of TJP1_2, Q07157 (Q07157 181-274): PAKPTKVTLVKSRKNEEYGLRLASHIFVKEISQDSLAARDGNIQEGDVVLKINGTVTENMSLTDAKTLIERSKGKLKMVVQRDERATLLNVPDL
Chain of PTPN3, P26045 (P26045 505-587): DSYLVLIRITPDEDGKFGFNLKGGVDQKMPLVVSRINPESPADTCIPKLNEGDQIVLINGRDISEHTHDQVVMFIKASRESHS
Chain of MAGI2_5, Q86UL8 (Q86UL8 915-1017): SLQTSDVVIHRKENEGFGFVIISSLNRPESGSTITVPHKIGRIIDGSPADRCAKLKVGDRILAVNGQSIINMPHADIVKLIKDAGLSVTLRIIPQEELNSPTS
Chain of HTRA1, Q92743 (Q92743 360-477): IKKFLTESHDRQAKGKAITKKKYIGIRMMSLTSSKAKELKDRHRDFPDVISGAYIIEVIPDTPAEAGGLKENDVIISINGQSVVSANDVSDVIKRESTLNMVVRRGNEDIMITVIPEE
Chain of IL16_3, Q14005 (Q14005 1107-1207): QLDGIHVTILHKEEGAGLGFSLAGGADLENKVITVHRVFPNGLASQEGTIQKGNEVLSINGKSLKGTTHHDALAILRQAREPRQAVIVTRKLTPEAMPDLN
Chain of NOS1, P29475 (P29475 9-101): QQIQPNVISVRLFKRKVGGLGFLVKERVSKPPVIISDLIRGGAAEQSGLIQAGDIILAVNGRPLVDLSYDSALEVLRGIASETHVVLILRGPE
Chain of PICK1, Q9NRD5 (Q9NRD5 17-115): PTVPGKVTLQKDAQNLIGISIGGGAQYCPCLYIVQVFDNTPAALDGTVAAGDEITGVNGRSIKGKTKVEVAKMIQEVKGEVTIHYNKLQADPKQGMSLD
Chain of MAST1, Q9Y2H9 (Q9Y2H9 962-1065): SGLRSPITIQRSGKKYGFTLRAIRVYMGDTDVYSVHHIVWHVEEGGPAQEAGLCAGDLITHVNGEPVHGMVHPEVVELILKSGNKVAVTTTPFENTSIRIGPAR
Chain of DLG1_2, Q12959 (Q12959 314-412): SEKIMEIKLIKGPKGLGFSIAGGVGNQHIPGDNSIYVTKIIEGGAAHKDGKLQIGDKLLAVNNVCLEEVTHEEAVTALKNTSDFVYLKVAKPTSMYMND

B1: NOSTRIN, Q8IVI9 (peptide)
chain: SNAGNTATKA
Regarding B1, the pKd result with LRRC7, Q96NW7 was “below the threshold”; in the experiment with HTRA1, Q92743 it was “below the threshold”; with TJP1_2, Q07157, “below the threshold”; with TX1BP3, O14907, “below the threshold”; with APBA2_2, Q99767, “below the threshold”; in the experiment with MAGI2_5, Q86UL8, “below the threshold”. In addition, the negative-log Kd (pKd) was 3.87 with PTPN3, P26045; “below the threshold” with MPDZ_12, O75970; “below the threshold” in the experiment with DLG1_2, Q12959; “below the threshold” in the experiment with PDZRN3_1, Q9UPQ7; “below the threshold” in the experiment with DLG2_2, Q15700; “below the threshold” with NOS1, P29475. Moreover, the pKd result in the experiment with MAST1, Q9Y2H9 is “below the threshold”; with DLG2_3, Q15700 it was 3.6; in the experiment with PICK1, Q9NRD5 it was “below the threshold”; with DLG3_1, Q92796, “below the threshold”; with LIN7A, O14910, “below the threshold”; with NHERF3_1, Q5T2W1, “below the threshold”. The pKd entry is given as “below the threshold” with NHERF3_4, Q5T2W1; “below the threshold” with ARHGAP21, Q5T5U3; “below the threshold” with MPDZ_5, O75970; “below the threshold” in the experiment with IL16_3, Q14005; “below the threshold” in the experiment with MPDZ_10, O75970; “below the threshold” in the experiment with DFNB31_2, Q9P202.

B2: SAPCD1, Q5SSQ6 (peptide)
chain: TKGPRGPTRV
In the case of B2, the pKd result is “below the threshold” in the experiment with LRRC7, Q96NW7; “below the threshold” with HTRA1, Q92743; “below the threshold” with TJP1_2, Q07157; “below the threshold” in the experiment with TX1BP3, O14907; “below the threshold” with APBA2_2, Q99767; “below the threshold” in the experiment with MAGI2_5, Q86UL8. Moreover, the pKd entry in the experiment with PTPN3, P26045 was “below the threshold”; in the experiment with MPDZ_12, O75970, “below the threshold”; with DLG1_2, Q12959, 4.68; with PDZRN3_1, Q9UPQ7 it was 4.03; with DLG2_2, Q15700, 4.38; with NOS1, P29475, 4.2. In addition, the pKd was 4.09 in the experiment with MAST1, Q9Y2H9; 4.55 in the experiment with DLG2_3, Q15700; 4.11 in the experiment with PICK1, Q9NRD5; 3.96 in the experiment with DLG3_1, Q92796; “below the threshold” with LIN7A, O14910; “below the threshold” in the experiment with NHERF3_1, Q5T2W1. Besides, the pKd result with NHERF3_4, Q5T2W1 is “below the threshold”; with ARHGAP21, Q5T5U3 it was “below the threshold”; in the experiment with MPDZ_5, O75970 it was “below the threshold”; with IL16_3, Q14005, “below the threshold”; with MPDZ_10, O75970 it was 4.4; in the experiment with DFNB31_2, Q9P202 it was “below the threshold”.

B3: SLC45A4, Q5BKX6 (peptide)
chain: QGPVETESVV
For B3, the negative logarithm of the Kd (pKd) in the experiment with LRRC7, Q96NW7 is 3.73; with HTRA1, Q92743, 4.55; with TJP1_2, Q07157 it was 3.54; in the experiment with TX1BP3, O14907, 3.81; with APBA2_2, Q99767, “below the threshold”; with MAGI2_5, Q86UL8, 4.55. Also, the pKd with PTPN3, P26045 came out at 4.66; in the experiment with MPDZ_12, O75970, 3.5; in the experiment with DLG1_2, Q12959, 4.69; with PDZRN3_1, Q9UPQ7 it was 3.72; with DLG2_2, Q15700, 4.45; in the experiment with NOS1, P29475, 3.85. Moreover, the pKd with MAST1, Q9Y2H9 is 4.36; with DLG2_3, Q15700 it was “below the threshold”; in the experiment with PICK1, Q9NRD5 it was “below the threshold”; in the experiment with DLG3_1, Q92796, 3.88; with LIN7A, O14910, “below the threshold”; with NHERF3_1, Q5T2W1, 4.01. Also, the pKd result was “below the threshold” in the experiment with NHERF3_4, Q5T2W1; 4.14 in the experiment with ARHGAP21, Q5T5U3; “below the threshold” with MPDZ_5, O75970; “below the threshold” with IL16_3, Q14005; “below the threshold” in the experiment with MPDZ_10, O75970; “below the threshold” in the experiment with DFNB31_2, Q9P202.
